Here are results for 5 molecules from article PMC7031059.

B1: ABF2-F (PpABF2 promoter TBS) (dsDNA)
DNA 1: ACCTAACCTAAGTGGGACCATGCCCTTTTT
DNA 2: AAAAAGGGCATGGTCCCACTTAGGTTAGGT
B2: 6mT (GGGCCC to AAATTT) (dsDNA)
DNA 1: GGTAAATTTAATCAAGTGACATGACAGCGA
DNA 2: TCGCTGTCATGTCACTTGATTAAATTTACC
B3: 5T2 (dsDNA)
DNA 1: CATGTGTCATGGTGGGCTCAATCAAGTGGC
DNA 2: GCCACTTGATTGAGCCCACCATGACACATG
B4: 6T (PpDAM6 promoter site-II) (dsDNA)
DNA 1: GGTGGGCCCAATCAAGTGACATGACAGCGA
DNA 2: TCGCTGTCATGTCACTTGATTGGGCCCACC
B5: 5mT2 (GGG to TTT) (dsDNA)
DNA 1: B3 DNA 1 with G14T, G15T, G16T
DNA 2: B3 DNA 2 with C15A, C16A, C17A

Residue numbers refer to the chain shown, from its start.

The series addresses PpTCP20-GST (Prunus persica var. nectarina cv. …, UniProt A0A251Q833 1-310). Kind of series: EMSA. In general terms: In EMSA bound probe runs differently from free probe, usually more slowly.
For B1, the binding result was “binds”. On to B2, for which the binding result is on record as “no binding”.

With B3, the binding result is recorded as “binds”. Then B4, with “binds”. As to B5, the binding result is “no binding”.
